Experimental data reported in patent publication US20170368136.

What was measured:
CN19 = test system: T1, CN19
T1 sequence: KRPPKLGQIGRSKRVVIED

CN19 S12A = test system: T2, CN19 S12A
T2 sequence: KRPPKLGQIGRAKRVVIED

Chain of CaMKII (chain): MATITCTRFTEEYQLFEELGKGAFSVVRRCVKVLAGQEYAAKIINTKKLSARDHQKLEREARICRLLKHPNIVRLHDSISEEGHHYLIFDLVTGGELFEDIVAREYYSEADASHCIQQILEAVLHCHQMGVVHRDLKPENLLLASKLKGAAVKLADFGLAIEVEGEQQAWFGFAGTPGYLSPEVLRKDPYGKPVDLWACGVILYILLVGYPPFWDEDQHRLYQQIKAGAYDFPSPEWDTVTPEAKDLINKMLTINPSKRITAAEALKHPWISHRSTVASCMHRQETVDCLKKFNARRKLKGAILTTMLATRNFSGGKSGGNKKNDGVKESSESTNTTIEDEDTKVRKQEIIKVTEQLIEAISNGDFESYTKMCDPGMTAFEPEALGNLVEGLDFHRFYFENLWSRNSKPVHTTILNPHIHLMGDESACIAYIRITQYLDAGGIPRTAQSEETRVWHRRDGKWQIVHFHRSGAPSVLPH

Substance	AC2 substrate phosphorylation by CaMKII (CN21b)	CaMKII substrate- and auto-phosphorylation (Western) (CaM-KIIN)	AC2 substrate phosphorylation by CaMKII (CN21c)	MAP2 phosphorylation by CaMKII (Western), 5 µM peptide (CN21c)	phosphorylation rate by PKC relative to a MARCKS peptide substrate (CN19)	phosphate incorporation by PKC (CN19 S12A)
CaMKII	The other 21mer peptides, CN21b and CN21c, had minimal or no effect	CaM-KIIN and CN21 block substrate- and T305 but not T286 auto-phosphorylation	The other 21mer peptides, CN21b and CN21c, had minimal or no effect	Only CN21c failed to block MAP2 phosphorylation	–	–
PKC	–	–	–	–	with a phosphorylation rate of >50% compared to a peptide derived from a major PKC substrate protein	CN19 but not its S12A mutant was phosphorylated by PKC
